We go through 18 molecules from patent US20250320312A1 (OXITOPE PHARMA B V, published 2025).

B1: PcOxP_DB03_C11 (scFv, V domains shown)
VH: EVQLLESGGGLVQPGGSLRLSCAASGFDFSDFYMEWVRQAPGKGLEWVAASRNKANDYTTDYADSVKGRFTISRDNSKNTLYLQMNSLRAEDTAVYYCARDYFGSSYWYFDVWGQGTLVTVSS
VL: DIQMTQSPSSLSASVGDRVTITCTASESLYSSKHKVHYLAWYQQKPGKAPKLLIYGASNRYQGVPSRFSGSGSGTDFTLTISSLQPEDFATYYCAQFYFYPLTFGGGTKVEIK
notes: scFv in periplasmic extract
B2: PcOxP_DB01_H08 (scFv, V domains shown)
VH: B1 VH with D28T, F29H, D61E, F103Y
VL: DIQMTQSPSSLSASVGDRVTITCRASESISSSKHKHYLAWYQQKPGKAPKLLIYGASNRYIGVPSRFSGSGSGTDFTLTISSLQPEDFATYYCAQFYVYPLTFGGGTKVEIK
notes: scFv in periplasmic extract
B3: PcOxP_DB03_E01 (scFv, V domains shown)
VH: B1 VH with D28T, F32Y, T60V, D61E, F103Y
VL: B1 VL with A57T, Q62I, F99E
notes: scFv in periplasmic extract
B4: PcOxP_DB03_G03 (scFv, V domains shown)
VH: B1 VH with D28T, F29S, D61E, F103Y
VL: B1 VL with E27Q, L29I, Y30S, R60H, Q62I, F99S
notes: scFv in periplasmic extract
B5: PcOxP_DB03_C12 (scFv, V domains shown)
VH: B1 VH with D28T, F32Y, D61E, F103Y
VL: B1 VL with Q62G, F99S
notes: scFv in periplasmic extract
B6: PcOxP_DB03_D08 (scFv, V domains shown)
VH: B1 VH with D28W, D61E, F103Y, S106A
VL: B1 VL with Q62I, F99S
notes: scFv in periplasmic extract
B7: PcOxP_DB03_G06 (scFv, V domains shown)
VH: B1 VH with D28T, D61E, F103Y
VL: B1 VL with Q62I, F99E
notes: scFv in periplasmic extract
B8: PcOxP_DB03_E07 (scFv, V domains shown)
VH: B1 VH with D28T, F32N, T60N, D61E, F103Y
VL: B1 VL with Q62I, F99S
notes: scFv in periplasmic extract
B9: PcOxP_DB03_E09 (scFv, V domains shown)
VH: B1 VH with D28T, F29A, Y58Q, D61E, F103Y, V112S
VL: B1 VL with Y61Q, Q62S, F99S
notes: scFv in periplasmic extract
B10: PcOxP_DB03_G07 (scFv, V domains shown)
VH: B1 VH with D28T, F32H, D61E, F103Y, S105Q
VL: B1 VL with Q62I, F99S
notes: scFv in periplasmic extract
B11: PcOxP_DB03_D11 (scFv, V domains shown)
VH: B1 VH with D28T, D61E, F103Y, S105H
VL: B1 VL with N59S, Q62I, F99E
notes: scFv in periplasmic extract
B12: PcOxP_DB03_D01 (scFv, V domains shown)
VH: B1 VH with D28T, F32E, D61E, F103Y
VL: B1 VL with Q62I, F99Y
notes: scFv in periplasmic extract
B13: PcOxP_DB03_E08 (scFv, V domains shown)
VH: B1 VH with D28T, D31S, K54A, D61E, F103Y, V112L
VL: B1 VL with Q62I
notes: scFv in periplasmic extract
B14: PcOxP_DB03_G02 (scFv, V domains shown)
VH: B1 VH with D28T, F32G, M34I, D61E, F103Y
VL: B1 VL with S28E, Q62I, F99S
notes: scFv in periplasmic extract
B15: PcOxP_DB03_D07 (scFv, V domains shown)
VH: B1 VH with D28T, F32V, D61E, F103Y
VL: B1 VL with Q62S, F99K
notes: scFv in periplasmic extract
B16: PcOxP_DB03_F01 (scFv, V domains shown)
VH: B1 VH with D28T, S30N, D61E, F103Y
VL: B1 VL with T24E, Y61L, Q62I, F99E
notes: scFv in periplasmic extract
B17: PcOxP_DB03_F10 (scFv, V domains shown)
VH: B1 VH with D28T, F32H, K54S, A55G, D57S, D61E, F103Y
VL: B1 VL with K35S, Y61F, Q62I, F99S
notes: scFv in periplasmic extract
B18: PcOxP_DB03_E02 (scFv, V domains shown)
VH: B1 VH with F27W, D28T, D61E, F103Y
VL: B1 VL with S32Q, Q62I, F99Y
notes: scFv in periplasmic extract

Residue numbers refer to the chain shown, from its start.

For one test, the target named is Peptide 5: Biotin-…-[Tyr(PC)]-acid. Description: scFv ELISA. (In general: An ELISA detects its analyte on a solid surface through an enzyme-linked reagent.)
B1 came in with an OD450 of 0.75 OD450.

The molecule B2 returned an OD450 of 0.85 OD450.

In turn, B3 showed an OD450 of 2.11 OD450.

The molecule B4 registered an OD450 of 1.8 OD450.

Turning to B5, the OD450 worked out at 1.77 OD450.

Regarding B6, the OD450 came to 0.57 OD450.

As to B7, the OD450 was 2.01 OD450.

With B8, the OD450 worked out at 0.86 OD450.

In the case of B9, the OD450 came out at 0.72 OD450.

For B10, the OD450 is 1.67 OD450.

The molecule B11 returned an OD450 of 0.66 OD450.

With B12, the OD450 worked out at 1.6 OD450.

For the molecule B13, the OD450 stood at 0.92 OD450.

The molecule B14 came in with an OD450 of 1.59 OD450.

As to B15, the OD450 is 0.95 OD450.

For the molecule B16, the OD450 was 0.8 OD450.

In turn, B17 registered an OD450 of 0.85 OD450.

B18 yielded an OD450 of 1.49 OD450.

Another test concerns the target Peptide 1: Biotin-…-[Tyr(PC)]-acid. Description: scFv ELISA.
As for B1, the OD450 was found to be 1.14 OD450.

For the molecule B2, the OD450 stood at 0.56 OD450.

The molecule B3 had an OD450 of 2.5 OD450.

For B4, the OD450 turned out to be 1.57 OD450.

As to B5, the OD450 was 2.74 OD450.

B6 returned an OD450 of 0.54 OD450.

B7 registered an OD450 of 2.48 OD450.

Molecule B8 registered an OD450 of 0.78 OD450.

B9 displayed an OD450 of 0.39 OD450.

B10 showed an OD450 of 2.18 OD450.

B11 showed an OD450 of 0.5 OD450.

For B12, the OD450 worked out at 2.51 OD450.

B13 displayed an OD450 of 0.87 OD450.

Molecule B14 had an OD450 of 1.33 OD450.

Molecule B15 showed an OD450 of 0.75 OD450.

B16: the OD450 came to 0.58 OD450.

B17 yielded an OD450 of 0.65 OD450.

B18 yielded an OD450 of 2 OD450.

For the next test, the target named is BSA (UniProt P02769). The test can be described thus: scFv ELISA.
Sequence of BSA (P02769 25-607 limits assumed): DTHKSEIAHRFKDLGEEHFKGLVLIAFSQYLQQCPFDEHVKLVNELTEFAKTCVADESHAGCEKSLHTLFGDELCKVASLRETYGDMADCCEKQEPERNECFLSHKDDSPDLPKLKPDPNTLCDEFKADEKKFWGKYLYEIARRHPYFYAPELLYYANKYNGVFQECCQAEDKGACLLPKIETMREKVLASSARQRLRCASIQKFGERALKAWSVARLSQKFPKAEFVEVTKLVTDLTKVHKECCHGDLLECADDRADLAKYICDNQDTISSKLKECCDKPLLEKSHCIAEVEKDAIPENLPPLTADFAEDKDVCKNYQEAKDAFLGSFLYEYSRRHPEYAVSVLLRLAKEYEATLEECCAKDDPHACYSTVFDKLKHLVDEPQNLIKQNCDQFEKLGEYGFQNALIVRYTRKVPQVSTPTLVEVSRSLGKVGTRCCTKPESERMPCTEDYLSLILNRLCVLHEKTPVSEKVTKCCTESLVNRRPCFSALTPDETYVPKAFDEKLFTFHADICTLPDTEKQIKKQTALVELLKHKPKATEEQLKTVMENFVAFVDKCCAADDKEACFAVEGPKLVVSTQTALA
In the case of B1, the OD450 stood at 0.07 OD450.

As for B2, the OD450 came out at 0.09 OD450.

As for B3, the OD450 was found to be 0.09 OD450.

On to B4, for which the OD450 came to 0.08 OD450.

As to B5, the OD450 came to 0.09 OD450.

As to B6, the OD450 amounted to 0.1 OD450.

For B7, the OD450 amounted to 0.1 OD450.

In turn, B8 displayed an OD450 of 0.08 OD450.

As to B9, the OD450 worked out at 0.08 OD450.

In the case of B10, the OD450 was found to be 0.1 OD450.

Molecule B11 registered an OD450 of 0.08 OD450.

Turning to B12, the OD450 turned out to be 0.08 OD450.

As for B13, the OD450 amounted to 0.09 OD450.

In turn, B14 came in with an OD450 of 0.07 OD450.

Take B15: the OD450 stood at 0.12 OD450.

In turn, B16 came in with an OD450 of 0.09 OD450.

Molecule B17 had an OD450 of 0.09 OD450.

In turn, B18 came in with an OD450 of 0.11 OD450.

The target of another test is T1, Peptide 8: Biotin-AEAAAKEAAAKEAAAKEAAAKAAA-Tyr-acid (N-terminal biotin; C-terminal acid).
T1 construct: control peptide without PC
T1 peptide: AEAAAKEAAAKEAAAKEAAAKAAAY
Description: scFv ELISA. The method in brief:
(§1)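 Bound scFv was read as OD450 after HRP–anti-V5 detection, TMB development and HCl stop. PPE with BSA was incubated 1 h at RT on BSA-blocked wells coated overnight at 4° C. with peptide, or on streptavidin wells loaded 1 h with biotinylated PC-peptides at 1 μg/mL.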
B1: the OD450 was found to be 0.04 OD450.

The molecule B2 displayed an OD450 of 0.06 OD450.

B3 showed an OD450 of 0.06 OD450.

As for B4, the OD450 was determined as 0.08 OD450.

For B5, the OD450 worked out at 0.05 OD450.

B6 yielded an OD450 of 0.05 OD450.

Take B7: the OD450 worked out at 0.06 OD450.

On to B8, for which the OD450 was determined as 0.05 OD450.

As to B9, the OD450 is 0.05 OD450.

As to B10, the OD450 amounted to 0.05 OD450.

For the molecule B11, the OD450 is 0.05 OD450.

The molecule B12 displayed an OD450 of 0.05 OD450.

Molecule B13 returned an OD450 of 0.05 OD450.

Consider B14, for which the OD450 was 0.05 OD450.

With B15, the OD450 was 0.05 OD450.

In the case of B16, the OD450 is 0.05 OD450.

B17 gave an OD450 of 0.07 OD450.

B18 had an OD450 of 0.05 OD450.

The next test concerns the target T2, Peptide 4: Biotin-AGGGGSGGGGSGGGGSAAA-Tyr-acid (N-terminal biotin; C-terminal acid).
T2 construct: control peptide without PC
T2 peptide: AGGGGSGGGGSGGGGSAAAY
The test can be described thus: scFv ELISA. The method in brief: as §1
B1 had an OD450 of 0.05 OD450.

On to B2, for which the OD450 amounted to 0.06 OD450.

For the molecule B3, the OD450 turned out to be 0.06 OD450.

As for B4, the OD450 is 0.05 OD450.

Regarding B5, the OD450 amounted to 0.05 OD450.

In turn, B6 came in with an OD450 of 0.05 OD450.

Molecule B7 displayed an OD450 of 0.06 OD450.

On to B8, for which the OD450 came to 0.05 OD450.

The molecule B9 registered an OD450 of 0.05 OD450.

Molecule B10 returned an OD450 of 0.06 OD450.

Consider B11, for which the OD450 stood at 0.06 OD450.

The molecule B12 yielded an OD450 of 0.05 OD450.

B13 displayed an OD450 of 0.05 OD450.

As to B14, the OD450 amounted to 0.04 OD450.

B15: the OD450 turned out to be 0.06 OD450.

In turn, B16 gave an OD450 of 0.05 OD450.

B17: the OD450 is 0.05 OD450.

Take B18: the OD450 came out at 0.06 OD450.
